Measured values from US20100203046A1 (Biogen, published 2010).
Like-named read-outs stand apart in the source and are kept apart here. Values belong to the binder of their own block, whether it stands above or below them.

How the values were obtained:
[1] = target: T1, human FcγRIII (CD16), CD16a (F158), on CD16-transfected Jurkat cells (human, UniProt P08637 17-254); assay: CD16 bridging assay, transient
T1 construct: whole, on cells

[2] = target: T2, human FcγRI (CD64) on IFNγ-activated U937 cells (human, UniProt P12314 16-374); assay: CD64 bridging assay, purified
T2 construct: whole, on cells; also called FcγR1
T2 sequence (P12314 16-374): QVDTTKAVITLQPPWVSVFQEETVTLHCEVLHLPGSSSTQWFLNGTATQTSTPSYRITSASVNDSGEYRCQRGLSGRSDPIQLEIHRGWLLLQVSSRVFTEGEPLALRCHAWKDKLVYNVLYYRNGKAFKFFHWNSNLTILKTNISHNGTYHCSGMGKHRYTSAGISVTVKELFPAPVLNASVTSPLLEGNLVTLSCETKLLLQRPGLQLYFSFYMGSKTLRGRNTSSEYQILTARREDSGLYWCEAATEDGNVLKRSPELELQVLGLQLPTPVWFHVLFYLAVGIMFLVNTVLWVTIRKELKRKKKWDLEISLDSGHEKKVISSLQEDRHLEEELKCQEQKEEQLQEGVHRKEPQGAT

[3] = target: Human FcγRIIIa on natural killer (NK) cells of a donor (human, UniProt P08637 17-254); assay: cell-based or functional assay
[4] = target: T3, GST-tagged FcγRIII, CD16a (V158) (UniProt P08637 17-208, limits assumed); assay: AlphaScreen competition vs huIgG1 beads, purified
T3 construct: the canonical entry carries F there; Captured by biotinylated anti-GST mAb on streptavidin donor beads; also called GST-FcγRIII; not shown: GST tag
T3 sequence (P08637 17-208 F176V limits assumed): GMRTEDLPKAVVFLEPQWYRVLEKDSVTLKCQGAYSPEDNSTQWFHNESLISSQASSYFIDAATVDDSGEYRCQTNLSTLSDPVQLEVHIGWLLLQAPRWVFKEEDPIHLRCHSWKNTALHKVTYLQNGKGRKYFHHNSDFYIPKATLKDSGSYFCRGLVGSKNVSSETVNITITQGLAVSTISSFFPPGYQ
Experimental: The relative binding affinities to FcγRIII (CD16), of the variant antibodies, was determined using an AlphaScreen assay (Amplified Luminescent Proximity Homogeneous Assay, PerkinElmer, MA, USA). Laser excitation of a donor bead excites oxygen, which if in close proximity to an acceptor bead generates a cascade of chemiluminescent events, ultimately leading to fluorescence emission at 520-620 nm. […] The reaction was carried out for one hour in a 25 μl volume and plates were read in the Fusion Alpha reader (PerkinElmer).

[5] = target: T4, human C1q (Sigma C0660) (human, UniProt P02745 23-245; P02746 28-253; P02747 29-245); assay: C1q ELISA on CD2, purified
T4 construct: Bought protein; also called complement protein C1q
Experimental: (§1) The C1q binding assay was performed by coating 96 well Maxisorb ELISA plates (Nalge-Nunc Rochester, N.Y., USA) with 50 μl recombinant soluble human CD2 at 10 μg/ml overnight at 4° C. in PBS. The wells were aspirated and washed three times with wash buffer (PBS, 0.05% Tween 20) and blocked for >1 h with 200 μ/well of block/diluent buffer (0.1 M Na₂HPO₄, pH 7, 0.1 M NaCl, 0.05% Tween 20, 0.1% gelatin). The antibody to be tested was diluted in block/diluent buffer starting at 15 μg/ml with 3-fold dilutions. 50 μl were added per well, and the plates incubated for 2 h at room temperature. After aspirating and washing as above, 50 μl/well of 2 μg/ml of Sigma human C1q (C0660) diluted in block/diluent buffer was added and incubated for 1.5 h at room temperature. After aspirating and washing as above, 50 μl/well of chicken anti human C1q (Cedarlane laboratories CL2101AP), diluted 2,000-fold in block/diluent buffer, was added. After incubation for 1.5 h at room temperature, the wells were aspirated and washed as above. 50 μl/well of donkey F(ab′)₂ anti chicken IgY HRP conjugate (Jackson ImmunoResearch 703-036-155) diluted to 1:5,000 in block/diluent was then added, and the wells incubated for 1 h at room temperature. After aspirating and washing as above, 100 μl TMB substrate (420 μM TMB, 0.004% H₂O₂ in 0.1 M sodium acetate/citric acid buffer, pH 4.9) was added and incubated for 2 min before the reaction was stopped with 100 μl 2 N sulfuric acid. The absorbance was read at 450 nm with a Softmax P instrument, and Softmax software was used to determine the relative binding affinity (C value) with a 4-parameter fit.

[6] = target: T1, human FcγRIII (CD16), CD16a (F158), on …; assay: CD16 bridging assay, purified
[7] = target: T4, human C1q (Sigma C0660); assay: summary of Table 6 assays
[8] = target: T1, human FcγRIII (CD16), CD16a (F158), on …; assay: CD16 bridging assay, transient; remark: listed apart in the source
[9] = target: T4, human C1q (Sigma C0660); assay: C1q ELISA on CD2, transient
Experimental: as §1

[10] = target: T5, human FcγRIIb (CD32b) on CHO-FcγRII cells (human, UniProt P31994 43-310); assay: CD32b bridging assay, purified
T5 construct: whole, on cells
T5 sequence (looked up): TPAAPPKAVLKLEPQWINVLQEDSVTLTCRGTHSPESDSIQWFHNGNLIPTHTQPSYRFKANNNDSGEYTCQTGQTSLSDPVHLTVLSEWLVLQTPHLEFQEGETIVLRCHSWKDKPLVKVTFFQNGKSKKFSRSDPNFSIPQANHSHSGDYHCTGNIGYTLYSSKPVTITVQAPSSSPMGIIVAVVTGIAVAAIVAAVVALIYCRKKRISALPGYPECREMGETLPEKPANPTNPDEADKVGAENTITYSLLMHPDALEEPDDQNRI

[11] = target: T1, human FcγRIII (CD16), CD16a (F158), on …; assay: CD16 bridging assay, transient; remark: listed apart in the source
[12] = target: T1, human FcγRIII (CD16), CD16a (F158), on …; assay: summary of Table 5 assays
[13] = target: T1, human FcγRIII (CD16), CD16a (F158), on …; assay: CD16 bridging assay, purified; remark: listed apart in the source
[14] = target: T1, human FcγRIII (CD16), CD16a (F158), on …; assay: CD16 bridging assay, transient; remark: listed apart in the source
[15] = target: T3, GST-tagged FcγRIII, CD16a (V158); assay: summary of Table 4 assays (CD16a)
[16] = target: T1, human FcγRIII (CD16), CD16a (F158), on …; assay: summary of Table 3 assays
[17] = target: T1, human FcγRIII (CD16), CD16a (F158), on …; assay: summary of Table 6 assays
[18] = target: T1, human FcγRIII (CD16), CD16a (F158), on …; assay: CD16 bridging assay, purified; remark: listed apart in the source

T1 sequence (P08637 17-254): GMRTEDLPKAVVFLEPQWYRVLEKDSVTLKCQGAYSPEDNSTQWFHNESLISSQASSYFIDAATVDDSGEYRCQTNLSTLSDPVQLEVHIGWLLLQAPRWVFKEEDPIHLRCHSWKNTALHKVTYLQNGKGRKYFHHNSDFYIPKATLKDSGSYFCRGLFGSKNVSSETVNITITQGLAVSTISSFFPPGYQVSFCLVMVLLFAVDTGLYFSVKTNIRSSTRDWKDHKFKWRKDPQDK

fold increase in binding vs WT [1]: 20 fold
binding result [2]: binds
fold increase in binding vs WT [4]: 8 fold
binding result [5]: binds
fold increase in binding vs WT [6]: 7 fold
B1: chCB6-huIgG1 I332E (antibody, name in EU numbering)
heavy: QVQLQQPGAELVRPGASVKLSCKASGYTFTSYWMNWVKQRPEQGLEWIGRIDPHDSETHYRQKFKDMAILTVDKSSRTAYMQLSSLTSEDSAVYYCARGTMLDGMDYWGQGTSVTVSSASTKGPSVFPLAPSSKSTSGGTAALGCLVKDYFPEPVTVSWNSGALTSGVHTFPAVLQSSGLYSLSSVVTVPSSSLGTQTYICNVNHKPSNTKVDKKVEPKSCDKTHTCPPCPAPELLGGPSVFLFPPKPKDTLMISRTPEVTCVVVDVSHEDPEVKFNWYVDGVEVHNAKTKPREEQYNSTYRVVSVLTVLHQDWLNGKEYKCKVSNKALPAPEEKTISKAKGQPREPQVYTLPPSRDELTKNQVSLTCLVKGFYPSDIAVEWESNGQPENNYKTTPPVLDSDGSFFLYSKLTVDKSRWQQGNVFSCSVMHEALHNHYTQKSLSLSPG
light: QIVLTQSPAIMSASPGEKVTMTCRASSSVSHMHWYQQKSGTSPKRWIYDTSKLASGVPARFSGSGSGTSYSLTISSVEAEDAATYYCQQWSSNPLTFGAGTKLELKRTVAAPSVFIFPPSDEQLKSGTASVVCLLNNFYPREAKVQWKVDNALQSGNSQESVTEQDSKDSTYSLSSTLTLSKADYEKHKVYACEVTHQGLSSPVTKSFNRGEC
notes: copies: 2 + 2
ADCC NK cell, purified (fold increase vs WT) [3]: 24 fold

fold increase in binding vs WT [7]: > 5 fold
binding result [8]: binds
fold increase in binding vs WT [9]: 6 fold
B2: chCB6-huIgG1 A378Y (antibody, name in EU numbering)
heavy: not shown
light: B1 light
notes: copies: 2 + 2

binding result [10]: no binding
binding result [1]: no binding
binding result [2]: no binding
binding result [4]: no binding
binding result [5]: no binding
B3: chCB6-huIgG1 T299C (antibody, name in EU numbering)
heavy: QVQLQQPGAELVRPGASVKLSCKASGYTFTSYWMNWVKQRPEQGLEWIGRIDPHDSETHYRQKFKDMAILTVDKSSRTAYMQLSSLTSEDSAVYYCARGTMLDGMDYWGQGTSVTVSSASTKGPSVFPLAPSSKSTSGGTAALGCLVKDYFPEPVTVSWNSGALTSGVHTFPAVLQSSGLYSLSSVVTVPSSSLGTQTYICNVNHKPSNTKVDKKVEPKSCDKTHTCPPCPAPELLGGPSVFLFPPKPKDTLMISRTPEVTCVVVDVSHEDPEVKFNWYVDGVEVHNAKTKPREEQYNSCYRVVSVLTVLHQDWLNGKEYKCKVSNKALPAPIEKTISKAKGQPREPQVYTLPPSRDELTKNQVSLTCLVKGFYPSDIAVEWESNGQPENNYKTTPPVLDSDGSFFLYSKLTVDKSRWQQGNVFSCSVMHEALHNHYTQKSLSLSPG
light: B1 light
notes: Assay control; copies: 2 + 2

fold decrease in binding vs WT [11]: 12 fold
fold decrease in binding vs WT [12]: > 10 fold
B4: chCB6-huIgG1 E294S (antibody, name in EU numbering)
heavy: not shown
light: B1 light
notes: copies: 2 + 2

fold increase in binding vs WT [13]: 6 fold
fold increase in binding vs WT [14]: 4 fold
fold increase in binding vs WT [15]: > 10 fold
fold increase in binding vs WT [4]: 15 fold
binding result [5]: binds
B5: chCB6-huIgG1 S239D/I332D (antibody, name in EU numbering)
heavy: not shown
light: B1 light
notes: copies: 2 + 2

binding result [1]: no binding
fold decrease in binding vs WT [16]: > 10 fold
binding result [2]: binds
binding result [5]: no binding
B6: chCB6-huIgG1 L328D (antibody, name in EU numbering)
heavy: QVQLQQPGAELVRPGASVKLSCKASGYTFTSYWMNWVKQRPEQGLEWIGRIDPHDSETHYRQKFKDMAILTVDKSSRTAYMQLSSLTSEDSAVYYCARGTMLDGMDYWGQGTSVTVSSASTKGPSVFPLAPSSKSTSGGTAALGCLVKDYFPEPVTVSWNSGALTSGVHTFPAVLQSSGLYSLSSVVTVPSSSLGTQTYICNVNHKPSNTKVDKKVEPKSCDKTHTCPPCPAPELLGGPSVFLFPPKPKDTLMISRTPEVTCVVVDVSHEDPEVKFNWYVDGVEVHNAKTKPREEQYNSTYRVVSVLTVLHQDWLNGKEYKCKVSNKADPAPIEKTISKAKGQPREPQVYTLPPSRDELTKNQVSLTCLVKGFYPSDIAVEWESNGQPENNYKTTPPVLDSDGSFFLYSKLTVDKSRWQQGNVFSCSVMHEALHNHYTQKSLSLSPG
light: B1 light
notes: copies: 2 + 2

binding result [9]: binds
fold decrease in binding vs WT [11]: 13 fold
fold decrease in binding vs WT [12]: > 10 fold
B7: chCB6-huIgG1 R301Q (antibody, name in EU numbering)
heavy: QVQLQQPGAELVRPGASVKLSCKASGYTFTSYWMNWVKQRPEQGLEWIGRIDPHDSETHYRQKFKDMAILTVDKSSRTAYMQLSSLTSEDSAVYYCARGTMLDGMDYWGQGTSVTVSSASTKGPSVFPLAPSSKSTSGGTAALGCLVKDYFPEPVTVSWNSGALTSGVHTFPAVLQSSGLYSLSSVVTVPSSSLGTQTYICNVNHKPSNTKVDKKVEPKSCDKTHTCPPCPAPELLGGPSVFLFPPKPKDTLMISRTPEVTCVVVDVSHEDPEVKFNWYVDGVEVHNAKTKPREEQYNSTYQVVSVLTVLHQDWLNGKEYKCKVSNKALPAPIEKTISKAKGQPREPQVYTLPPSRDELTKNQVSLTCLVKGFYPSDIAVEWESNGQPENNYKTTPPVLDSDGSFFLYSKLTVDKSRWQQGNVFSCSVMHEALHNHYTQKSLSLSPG
light: B1 light
notes: copies: 2 + 2

fold decrease in binding vs WT [17]: > 10 fold
fold decrease in binding vs WT [8]: 15 fold
binding result [9]: binds
B8: chCB6-huIgG1 D376K (antibody, name in EU numbering)
heavy: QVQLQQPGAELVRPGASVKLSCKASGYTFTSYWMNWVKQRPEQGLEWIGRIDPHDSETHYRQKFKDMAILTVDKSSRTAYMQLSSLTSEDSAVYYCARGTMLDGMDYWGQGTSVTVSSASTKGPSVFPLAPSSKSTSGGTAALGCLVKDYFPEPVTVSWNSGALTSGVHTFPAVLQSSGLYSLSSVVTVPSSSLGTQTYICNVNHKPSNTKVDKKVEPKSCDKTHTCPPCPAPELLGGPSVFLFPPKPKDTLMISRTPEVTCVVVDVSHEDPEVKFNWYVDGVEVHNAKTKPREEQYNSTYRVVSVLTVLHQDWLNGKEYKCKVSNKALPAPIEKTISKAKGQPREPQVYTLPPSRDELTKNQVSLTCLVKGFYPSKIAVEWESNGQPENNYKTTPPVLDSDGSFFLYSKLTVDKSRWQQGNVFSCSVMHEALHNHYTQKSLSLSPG
light: B1 light
notes: copies: 2 + 2

fold decrease in binding vs WT [9]: 3 fold
fold decrease in binding vs WT [11]: 18 fold
fold decrease in binding vs WT [12]: > 10 fold
B9: chCB6-huIgG1 Y296H (antibody, name in EU numbering)
heavy: not shown
light: B1 light
notes: copies: 2 + 2

fold increase in binding vs WT [7]: > 5 fold
binding result [8]: binds
fold increase in binding vs WT [9]: 7 fold
B10: chCB6-huIgG1 A378W (antibody, name in EU numbering)
heavy: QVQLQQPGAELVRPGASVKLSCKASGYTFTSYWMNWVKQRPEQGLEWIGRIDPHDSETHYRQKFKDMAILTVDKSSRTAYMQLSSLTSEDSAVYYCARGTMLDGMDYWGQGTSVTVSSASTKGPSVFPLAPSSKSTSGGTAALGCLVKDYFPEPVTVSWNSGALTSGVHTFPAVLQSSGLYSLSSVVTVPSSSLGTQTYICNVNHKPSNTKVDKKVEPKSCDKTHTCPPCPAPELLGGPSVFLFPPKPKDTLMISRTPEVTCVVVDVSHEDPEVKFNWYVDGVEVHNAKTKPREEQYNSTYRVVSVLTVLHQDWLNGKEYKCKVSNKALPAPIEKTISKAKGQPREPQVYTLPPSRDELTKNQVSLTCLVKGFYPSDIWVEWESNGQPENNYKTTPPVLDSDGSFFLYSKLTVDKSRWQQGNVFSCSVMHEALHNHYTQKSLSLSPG
light: B1 light
notes: copies: 2 + 2

fold increase in binding vs WT [7]: > 5 fold
binding result [8]: binds
fold increase in binding vs WT [9]: 6 fold
B11: chCB6-huIgG1 A378F (antibody, name in EU numbering)
heavy: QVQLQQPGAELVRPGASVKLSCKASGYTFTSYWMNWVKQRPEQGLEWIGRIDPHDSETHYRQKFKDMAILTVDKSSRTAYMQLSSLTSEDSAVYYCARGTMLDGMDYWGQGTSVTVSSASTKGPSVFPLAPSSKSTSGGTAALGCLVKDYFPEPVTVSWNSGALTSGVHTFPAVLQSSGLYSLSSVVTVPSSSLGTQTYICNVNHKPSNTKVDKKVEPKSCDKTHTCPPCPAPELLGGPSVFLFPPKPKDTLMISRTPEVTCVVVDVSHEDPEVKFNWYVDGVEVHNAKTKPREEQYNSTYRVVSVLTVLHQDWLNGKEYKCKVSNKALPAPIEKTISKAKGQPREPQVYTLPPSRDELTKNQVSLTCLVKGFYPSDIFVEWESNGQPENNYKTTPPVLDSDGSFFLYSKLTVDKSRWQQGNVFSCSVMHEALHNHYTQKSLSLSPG
light: B1 light
notes: copies: 2 + 2

fold increase in binding vs WT [13]: 8 fold
fold increase in binding vs WT [14]: 12 fold
fold increase in binding vs WT [15]: > 10 fold
fold increase in binding vs WT [4]: 26 fold
binding result [5]: binds
B12: chCB6-huIgG1 S239D/I332E (antibody, name in EU numbering)
heavy: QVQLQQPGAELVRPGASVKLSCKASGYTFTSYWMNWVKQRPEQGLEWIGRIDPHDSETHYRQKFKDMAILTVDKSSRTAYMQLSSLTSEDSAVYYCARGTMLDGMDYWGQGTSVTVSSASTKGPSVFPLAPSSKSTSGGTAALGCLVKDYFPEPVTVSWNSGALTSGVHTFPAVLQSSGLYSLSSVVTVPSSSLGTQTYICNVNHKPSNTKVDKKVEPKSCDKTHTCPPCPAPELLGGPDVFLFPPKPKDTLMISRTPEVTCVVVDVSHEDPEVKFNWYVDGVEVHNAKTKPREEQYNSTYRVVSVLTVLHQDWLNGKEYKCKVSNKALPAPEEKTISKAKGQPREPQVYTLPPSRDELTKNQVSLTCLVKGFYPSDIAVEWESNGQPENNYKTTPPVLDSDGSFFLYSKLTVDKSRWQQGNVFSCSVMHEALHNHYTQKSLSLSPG
light: B1 light
notes: copies: 2 + 2

fold decrease in binding vs WT [17]: > 10 fold
fold decrease in binding vs WT [8]: 15 fold
binding result [9]: no binding
fold decrease in binding vs WT [18]: 3 fold
B13: chCB6-huIgG1 D376W (antibody, name in EU numbering)
heavy: not shown
light: B1 light
notes: copies: 2 + 2

fold decrease in binding vs WT [1]: 30 fold
fold decrease in binding vs WT [16]: > 10 fold
fold decrease in binding vs WT [2]: 14 fold
binding result [5]: no binding
fold decrease in binding vs WT [6]: 9 fold
B14: chCB6-huIgG1 L328E (antibody, name in EU numbering)
heavy: not shown
light: B1 light
notes: copies: 2 + 2

fold increase in binding vs WT [1]: 10 fold
fold decrease in binding vs WT [2]: 4 fold
fold increase in binding vs WT [4]: 4 fold
fold decrease in binding vs WT [5]: 2 fold
fold increase in binding vs WT [6]: 5 fold
B15: chCB6-huIgG1 triple mutant S298A/E333A/K334A (antibody, name in EU numbering)
heavy: QVQLQQPGAELVRPGASVKLSCKASGYTFTSYWMNWVKQRPEQGLEWIGRIDPHDSETHYRQKFKDMAILTVDKSSRTAYMQLSSLTSEDSAVYYCARGTMLDGMDYWGQGTSVTVSSASTKGPSVFPLAPSSKSTSGGTAALGCLVKDYFPEPVTVSWNSGALTSGVHTFPAVLQSSGLYSLSSVVTVPSSSLGTQTYICNVNHKPSNTKVDKKVEPKSCDKTHTCPPCPAPELLGGPSVFLFPPKPKDTLMISRTPEVTCVVVDVSHEDPEVKFNWYVDGVEVHNAKTKPREEQYNATYRVVSVLTVLHQDWLNGKEYKCKVSNKALPAPIAATISKAKGQPREPQVYTLPPSRDELTKNQVSLTCLVKGFYPSDIAVEWESNGQPENNYKTTPPVLDSDGSFFLYSKLTVDKSRWQQGNVFSCSVMHEALHNHYTQKSLSLSPG
light: B1 light
notes: Assay control; triple mutant as described by Shields et al; also called Triple Mutation S298A, E333A, K334A; copies: 2 + 2
ADCC NK cell, purified (fold increase vs WT) [3]: 21 fold

fold decrease in binding vs WT [10]: 3 fold
fold decrease in binding vs WT [1]: 2 fold
binding result [2]: binds
binding result [5]: no binding
fold decrease in binding vs WT [6]: 10 fold
B16: chCB6-huIgG1 L328N (antibody, name in EU numbering)
heavy: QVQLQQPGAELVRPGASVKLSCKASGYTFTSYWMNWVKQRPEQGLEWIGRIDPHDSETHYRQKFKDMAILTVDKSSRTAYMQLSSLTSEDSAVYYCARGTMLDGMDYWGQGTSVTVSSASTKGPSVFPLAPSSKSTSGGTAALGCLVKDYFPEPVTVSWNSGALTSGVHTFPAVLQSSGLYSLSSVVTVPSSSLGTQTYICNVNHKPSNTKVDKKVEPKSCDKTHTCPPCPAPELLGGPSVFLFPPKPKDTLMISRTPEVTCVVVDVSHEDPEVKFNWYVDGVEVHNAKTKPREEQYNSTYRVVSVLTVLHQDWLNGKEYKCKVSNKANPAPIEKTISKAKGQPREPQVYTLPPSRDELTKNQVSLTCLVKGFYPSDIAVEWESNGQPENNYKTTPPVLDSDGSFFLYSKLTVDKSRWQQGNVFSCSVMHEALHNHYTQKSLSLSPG
light: B1 light
notes: copies: 2 + 2

fold decrease in binding vs WT [18]: 3 fold
fold decrease in binding vs WT [5]: 3 fold
B17: chCB6-huIgG1 D376Y (antibody, name in EU numbering)
heavy: not shown
light: B1 light
notes: copies: 2 + 2
